B1: Sac7*6-PhoA chimera (binder 6 fused to the N-terminus of E. coli alkaline phosphatase) (designed binder)
chain: RTPEMPVDGTGSVKVKFVLGGEEKEVDTSKIRHVYRYGKHVTFSYDDNGKLGLGLVKEKDAPKELLDMLARAEREKKLRAQPGVLENRAAQGDITAPGGARRLTGDQTAALRDSLSDKPAKNIILLIGDGMGDSEITAARNYAEGAGGFFKGIDALPLTGQYTHYALNKKTGKPDYVTDSAASATAWSTGVKTYNGALGVDIHEKDHPTILEMAKAAGLATGNVSTAELQGATPAALVAHVTSRKCYGPSATSEKCPGNALEKGGKGSITEQLLNARADVTLGGGAKTFAETATAGEWQGKTLREQAQARGYQLVSDAASLNSVTEANQQKPLLGLFADGNMPVRWLGPKATYHGNIDKPAVTCTPNPQRNDSVPTLAQMTDKAIELLSKNEKGFFLQVEGASIDKQGHAANPCGQIGETVDLDEAVQRALEFAKKEGNTLVIVTADHAHASQIVAPDTKAPGLTQALNTKDGAVMVMSYGNSEEDSQEHTGSQLRIAAYGPHAANVVGLTDQTDLFYTMKAALGLK
notes: also called clone 6-alkalin phosphatase fusion; Sac7*-PhoA
B2: wild type Sac7d (recombinant) (other)
chain: VKVKFKYKGEEKEVDTSKIKKVWRVGKMVSFTYDDNGKTGRGAVSEKDAPKELLDMLARAEREKK
notes: also called Sac7d wt; wt Sac7d
B3: Sac7*33-PhoA chimera (binder 33 fused to the N-terminus of E. coli alkaline phosphatase) (designed binder)
chain: RTPEMPVDGTGSVKVKFTWYGEEKEVDTSKIMSVCRWGKRVAFSYDDNGKIDYGLVDEKDAPKELLDMLARAEREKKLRAQPGVLENRAAQGDITAPGGARRLTGDQTAALRDSLSDKPAKNIILLIGDGMGDSEITAARNYAEGAGGFFKGIDALPLTGQYTHYALNKKTGKPDYVTDSAASATAWSTGVKTYNGALGVDIHEKDHPTILEMAKAAGLATGNVSTAELQGATPAALVAHVTSRKCYGPSATSEKCPGNALEKGGKGSITEQLLNARADVTLGGGAKTFAETATAGEWQGKTLREQAQARGYQLVSDAASLNSVTEANQQKPLLGLFADGNMPVRWLGPKATYHGNIDKPAVTCTPNPQRNDSVPTLAQMTDKAIELLSKNEKGFFLQVEGASIDKQGHAANPCGQIGETVDLDEAVQRALEFAKKEGNTLVIVTADHAHASQIVAPDTKAPGLTQALNTKDGAVMVMSYGNSEEDSQEHTGSQLRIAAYGPHAANVVGLTDQTDLFYTMKAALGLK
B4: Sac7*40-PhoA chimera (binder 40 fused to the N-terminus of E. coli alkaline phosphatase) (designed binder)
chain: RTPEMPVDGTGSVKVKFGEHGEEKEVDTSKIMSVVRFGKWVCFRYDDNGKAGYGAVLEKDAPKELLDMLARAEREKKLRAQPGVLENRAAQGDITAPGGARRLTGDQTAALRDSLSDKPAKNIILLIGDGMGDSEITAARNYAEGAGGFFKGIDALPLTGQYTHYALNKKTGKPDYVTDSAASATAWSTGVKTYNGALGVDIHEKDHPTILEMAKAAGLATGNVSTAELQGATPAALVAHVTSRKCYGPSATSEKCPGNALEKGGKGSITEQLLNARADVTLGGGAKTFAETATAGEWQGKTLREQAQARGYQLVSDAASLNSVTEANQQKPLLGLFADGNMPVRWLGPKATYHGNIDKPAVTCTPNPQRNDSVPTLAQMTDKAIELLSKNEKGFFLQVEGASIDKQGHAANPCGQIGETVDLDEAVQRALEFAKKEGNTLVIVTADHAHASQIVAPDTKAPGLTQALNTKDGAVMVMSYGNSEEDSQEHTGSQLRIAAYGPHAANVVGLTDQTDLFYTMKAALGLK
notes: also called Sac7*-PhoA

Tests used:
[1] = target: T1, PulD-N, soluble monomeric fragment corresponding to the N-terminal region of PulD from Klebsiella oxytoca (Klebsiella oxytoca, UniProt P15644 28-264)
T1 sequence: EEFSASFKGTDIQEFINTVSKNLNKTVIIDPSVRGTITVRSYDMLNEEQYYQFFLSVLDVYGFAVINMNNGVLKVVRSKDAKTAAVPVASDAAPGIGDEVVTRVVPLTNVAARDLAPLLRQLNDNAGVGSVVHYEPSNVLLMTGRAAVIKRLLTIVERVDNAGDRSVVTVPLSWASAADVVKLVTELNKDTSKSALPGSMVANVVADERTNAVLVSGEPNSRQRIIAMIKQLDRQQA

[2] = target: T2, PulD-CS, PulD variant lacking the N-domain (Klebsiella oxytoca, UniProt P15644 28-660); assay: far-Western immunoblot
T2 construct: domain: PulD variant lacking the N-domain

[3] = target: T3, full-length PulD, monomeric (Klebsiella oxytoca, UniProt P15644 28-660); assay: cell-based or functional assay
T3 sequence: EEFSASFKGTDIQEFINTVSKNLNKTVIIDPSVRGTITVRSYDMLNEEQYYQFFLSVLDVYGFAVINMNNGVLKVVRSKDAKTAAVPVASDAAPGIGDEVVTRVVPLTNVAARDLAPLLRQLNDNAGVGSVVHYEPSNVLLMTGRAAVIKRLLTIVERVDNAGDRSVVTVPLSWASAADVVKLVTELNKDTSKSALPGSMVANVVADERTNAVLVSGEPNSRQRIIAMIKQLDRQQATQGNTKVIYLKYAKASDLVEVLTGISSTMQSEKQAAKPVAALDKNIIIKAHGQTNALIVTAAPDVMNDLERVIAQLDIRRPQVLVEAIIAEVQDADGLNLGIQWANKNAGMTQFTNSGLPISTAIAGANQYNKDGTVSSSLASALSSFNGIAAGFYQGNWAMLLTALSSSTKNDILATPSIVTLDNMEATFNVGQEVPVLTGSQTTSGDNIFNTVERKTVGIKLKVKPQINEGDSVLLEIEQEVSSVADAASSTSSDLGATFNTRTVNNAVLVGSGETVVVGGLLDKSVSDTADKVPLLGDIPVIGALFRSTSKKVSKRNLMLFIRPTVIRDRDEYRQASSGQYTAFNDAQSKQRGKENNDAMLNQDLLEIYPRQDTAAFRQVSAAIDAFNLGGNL

[4] = target: T1, PulD-N, soluble monomeric fragment …; assay: SPR, immobilized biotinylated PulD-N

Binder | ratio signal/background [1] | binding result [2] | inhibition of pullulanase secretion, strain PAP5198 pCHAP231, IPTG induced [3] [%] | binding result [4]
B1 | > 10 | no binding | > 90 | –
B2 | – | – | – | no binding
B3 | > 10 | – | > 90 | –
B4 | > 10 | no binding | > 90 | –

Reference: patent US20200181601A1 (INSTITUT PASTEUR, published 2020)
